Test results taken from patent publication US20210032351A1 (XDCEXPLORER SHANGHAI, published 2021).

Legend:
[1] = target: T1, human EGFRvIII-hFc protein (human, UniProt P00533 25-645); assay: ELISA, EGFRvIII-hFc coated
T1 construct: extracellular domain; also called immunogen A; hFc-tagged EGFRvIII protein; not shown: human IgG Fc fragment (hFc) of the pCpC vector

[2] = target: T1, human EGFRvIII-hFc protein; assay: ELISA, EGFRvIII-hFc coated; remark: listed apart in the source
[3] = target: T2, human EGFRvIII protein on the cell surface (human, UniProt P00533 25-1210); assay: FACS on U87MG-EGFRvIII cells
T2 construct: whole, on cells; the cell line is named under assay; also called hEGFRvIII; U87MG-hEGFRvIII
Method in brief: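 U87MG-EGFRvIII, A431 and primary human hepatocytes (2×10⁶ cells/mL, goat-serum blocked) were incubated with antibody on ice for 2 h, then with an Alexa 488 secondary (1:1000) for 1 h and fixed in 4% paraformaldehyde. Mean fluorescence intensity was read by flow cytometry, and EC50 was derived by curve fitting.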

[4] = target: T2, human EGFRvIII protein on the cell …; assay: FACS on U87MG-hEGFRvIII cells
[5] = target: T3, human wild-type EGFR protein on the cell surface (human, UniProt P00533 25-1210); assay: FACS on A431 cells; A431 cells (large amount of wild-type EGFR on the surface)
T3 construct: whole, on cells; Endogenous on A431, HEB, U87MG cells and normal human primary hepatocytes; transfected on CHOk1-EGFR cells; The cell is named under assay; also called A431; HEB
Description: The cells are washed twice with the HBSS buffer and are counted, and then the cells are diluted with the HBSS buffer to 2×10⁶ cells/ml, added with 1% goat serum blocking solution, with the percentage being the mass percentage, and incubated on ice for 30 minutes, and then centrifugally washed twice with the HBSS buffer. The collected cells are suspended to 2×10⁶ cells/mL with an FACS buffer (HBSS+1% BSA, with the percentage being the mass percentage), added to a 96-well FACS reaction plate at 100 μL/well, then added with 100 μL/well of the purified EGFRvIII antibody (samples to be tested) obtained in example 2, and incubated on ice for 2 hours. The plate is centrifugally washed twice with the FACS buffer, added with 100 μL/well of a fluorescence (Alexa 488) labeled secondary antibody (purchased from Invitrogen), and then incubated on ice for 1 hour. The plate is centrifugally washed 3 times with the FACS buffer, added with 100 μL/well of a fixing solution [4% (v/v) paraformaldehyde] for suspending the cells, and centrifugally washed twice with the FACS buffer after 10 minutes. The cells are suspended in 100 μL of the FACS buffer, and the results are detected and analyzed by FACS (FACS Calibur, purchased from BD). Data analysis is performed by using the software (CellQuest) to obtain the mean fluorescence intensity (MFI) of the cells. Data is further analyzed by using the software (GraphPad Prism5) to perform data fitting and calculate EC50. […] A431 cells (human epidermal cell cancer cell lines) have a large amount of wild-type EGFR protein expressed on the surface thereof. […] U87MG cells (human glioma cell lines) have a small amount of wild-type EGFR protein expressed on the surface thereof, while HEB cells (human glioma cell lines) have a high level of wild-type EGFR protein expression on the surface thereof.

[6] = target: human wild-type EGFR protein on the cell surface (human) (UniProt P00533); assay: FACS on A431 tumor cells
[7] = target: human EGFRvIII-hFc protein (human) (UniProt P00533); assay: ELISA, EGFRvIII-hFc coated
[8] = target: human EGFRvIII protein on the cell surface (human) (UniProt P00533); assay: FACS on U87MG-EGFRvIII cells
[9] = target: human wild-type EGFR protein on the cell surface (human) (UniProt P00533); assay: FACS on normal human primary hepatocytes
[10] = target: human wild-type EGFR protein on the cell surface (human) (UniProt P00533); assay: FACS, MFI on A431 cells over MFI on normal primary hepatocytes
[11] = target: EGFR-his (purchased from Sino Biological) (UniProt P00533); assay: BLI (OctetRED), antibody on anti-human Fc (AHC) biosensor, EGFR-his in solution
[12] = target: EGFRvIII-his (purchased from Sino Biological) (UniProt P00533); assay: BLI (OctetRED), antibody on anti-human Fc (AHC) biosensor, EGFRvIII-his in solution

Binder | MFI [6] [MFI] | EC50 [7] [nM] | Maximum OD450 value [7] [OD450] | EC50 [8] [nM] | Maximum mean fluorescence intensity [8] [MFI] | MFI [9] [MFI] | Selective window (MFI A431/Hepatocytes) [10] [fold] | Kd [11] [nM] | koff [11] [s⁻¹] | kon [11] [M⁻¹ s⁻¹] | Kd [12] [nM] | koff [12] [s⁻¹] | kon [12] [M⁻¹ s⁻¹] | further results
Chimeric antibody 63A10 (antibody, human IgG1, V domains shown, also called c63A10A7; chimeric antibody c63A10A7) VH: QVQLQQSGAELARPGASVKMSCKASGYTFISFTMHWVKQRPGQGLEWIGYINPNSGYTKYNQKFKDKATLTAGQSSSTAYMQLSSLTSEDSAVYYCTRGGGRGFAYWGQGTLVTVSA VL: DILMTQSPSSMSVSLGDTVTITCHASQDINSNIGWLQQKPGKSFKALIYHGTNLEDGVPSRFSGSGSGADYSLTISSLESEDFADYYCVQYAQFPFTFGSGTKLEIK | – | – | – | – | – | – | – | – | – | – | – | – | – | OD450 nm at 0.0001 nM antibody [1]: 0.07 OD450; OD450 nm at 0.001 nM antibody [1]: 0.11 OD450; OD450 nm at 0.01 nM antibody [1]: 0.37 OD450; OD450 nm at 0.1 nM antibody [1]: 1.05 OD450; OD450 nm at 1 nM antibody [1]: 3.33 OD450; OD450 nm at 10 nM antibody [1]: 3.55 OD450; OD450 nm at 100 nM antibody [1]: 3.55 OD450; EC50 [2]: 0.22 nM; Maximum OD450 value [2]: 3.6 OD450; EC50 [3]: 3.8 nM; Maximum mean fluorescence intensity [3]: 11600 MFI; EC50 [4]: 2.2 nM; EC50 [5]: 696 nM
Humanized antibody h75G7C6-1 (antibody, human IgG1, V domains shown) VH: EVQLVQSGAEVKKPGASVKVSCKASGYTFTDYNMDWVKQAPGQGLEWIGDINPNNADTIYNQKFKGRVTLTVDKSTSTVYMELSSLRSEDTAVYYCARGDYDGYYPVYYAMDYWGQGTTVTVSS VL: EIVLTQSPATLSLSPGERATLSCRASSSVSSSYLHWYQQKPGQAPRLLIYSTSNLAAGIPARFSGSGSGTDFTLTISSLEPEDFAVYYCQQYSGYPLTFGGGTKVEIK | 9780 | 0.49 | 3.41 | 4.93 | 18300 | 277 | 35.5 | 205 | 0.00353 | 17200 | 1.71 | 0.000141 | 82800 | –
Humanized antibody h75G7C6-2 (antibody, human IgG1, V domains shown) VH: EVQLVQSGAEVKKPGASVKVSCKASGYTFTDYNMDWVKQAPGQGLEWIGDINPNNADTIYNQKFKGRVTLTVDKSTSTVYMELSSLRSEDTAVYYCARGDYDGYYPVYYAMDYWGQGTTVTVSS VL: ENVLTQSPATLSLSPGERATLSCRASSSVSSSYLHWYQQKPGQAPRLLIFSTSNLAAGIPARFSGSGSGTDYTLTISSLEPEDFAVYYCQQYSGYPLTFGGGTKVEIK | 11800 | 0.38 | 3.38 | 5.67 | 18300 | 250 | 47 | 200 | 0.00405 | 20300 | 1.54 | 0.00014 | 90600 | –
